Reference: US8697369B2, “Method for screening a test substance for activating a receptor associated with FGF 21 activity” (National Institute of Advanced Industrial Science and …, priority 2007, dated 2014)
“Also recorded” adds a separate entry of the source.

What was measured:
Format in all cases: cell-based
[1] = system: 3T3-L1 fibroblasts forced to express betaKlotho; assay: Phosphorylation of FRS2 and MAPK in undifferentiated 3T3-L1 cells forced to express betaKlotho; conditions: 10 μM; pre-treated for 3 hours, then stimulated with FGF21
Protocol: A betaKlotho expression vector produced by the method described in Example 4 and an empty vector used as a control, into which betaKlotho cDNA had not been inserted, were introduced into 3T3-L1 fibroblasts cultured as described in Example 1 by a lipofection method, thereby obtaining Puromycin-resistant clones. These different types of cells were stimulated with FGF21, and 10 minutes after the stimulation, a cell lysate was prepared. The activation of FRS2 and MAPK that were signaling molecules located downstream of FGFR was examined by a Western blotting method.

[2] = biological target: T1, BaF3 cells that had co-expressed FGFR1c and Klotho (Mus musculus, UniProt O35082+P16092); assay: DNA synthesis in BaF3 cells co-expressing FGFR1c and Klotho; conditions: presence or absence of heparin
T1 construct: the entire-length cDNA of mouse FGFR1c had been cloned; expressed in transfected cells; host or cells: BaF3 (mouse pro-B) cells
Protocol: Specifically, BaF3 cell that had co-expressed FGFR1c and betaKlotho and BaF3 cells that had co-expressed FGFR1c and Klotho were prepared by the same transformation method and under the same culture conditions as those applied in Example 4. Thereafter, FGF21 and FGF23 were added to both types of transformed cells in the presence or absence of heparin, and the amount of DNA synthesized was then measured.

[3] = biological target: T2, FGFR1c/betaKlotho-expressing BaF3 cells (Mus musculus, UniProt P16092+Q99N32); assay: DNA synthesis (thymidine incorporation) in FGFR1c/betaKlotho-expressing BaF3 cells; conditions: BaF3 cells expressing FGFR1c and betaKlotho; presence or absence of heparin
T2 construct: the entire-length cDNA of mouse FGFR1c had been cloned; the entire-length cDNA of mouse betaKlotho was cloned into an animal cell expression vector; expressed in transfected cells; host or cells: BaF3 (mouse pro-B) cells
T2 sequence (P16092 22-822): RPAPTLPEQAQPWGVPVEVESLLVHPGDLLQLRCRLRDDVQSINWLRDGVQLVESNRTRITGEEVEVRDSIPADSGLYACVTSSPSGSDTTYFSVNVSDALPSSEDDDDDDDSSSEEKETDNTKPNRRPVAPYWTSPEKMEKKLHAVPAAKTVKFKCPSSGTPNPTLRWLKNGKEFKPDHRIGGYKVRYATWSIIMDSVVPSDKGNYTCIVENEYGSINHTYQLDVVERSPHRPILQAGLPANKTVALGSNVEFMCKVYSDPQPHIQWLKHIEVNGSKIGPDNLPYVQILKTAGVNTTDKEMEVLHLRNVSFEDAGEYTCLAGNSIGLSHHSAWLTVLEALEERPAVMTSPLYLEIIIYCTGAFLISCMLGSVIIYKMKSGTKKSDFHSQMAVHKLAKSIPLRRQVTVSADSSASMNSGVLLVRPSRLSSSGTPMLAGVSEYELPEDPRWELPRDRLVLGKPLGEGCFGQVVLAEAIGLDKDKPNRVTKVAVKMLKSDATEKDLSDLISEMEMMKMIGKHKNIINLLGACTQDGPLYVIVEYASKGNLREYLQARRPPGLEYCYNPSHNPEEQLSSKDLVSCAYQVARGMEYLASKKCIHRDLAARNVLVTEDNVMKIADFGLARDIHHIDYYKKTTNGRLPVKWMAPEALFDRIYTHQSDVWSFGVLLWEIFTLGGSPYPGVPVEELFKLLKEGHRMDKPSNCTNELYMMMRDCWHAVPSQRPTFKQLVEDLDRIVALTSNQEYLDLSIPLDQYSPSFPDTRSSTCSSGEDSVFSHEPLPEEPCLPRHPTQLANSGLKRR
T2 sequence (Q99N32 whole entry): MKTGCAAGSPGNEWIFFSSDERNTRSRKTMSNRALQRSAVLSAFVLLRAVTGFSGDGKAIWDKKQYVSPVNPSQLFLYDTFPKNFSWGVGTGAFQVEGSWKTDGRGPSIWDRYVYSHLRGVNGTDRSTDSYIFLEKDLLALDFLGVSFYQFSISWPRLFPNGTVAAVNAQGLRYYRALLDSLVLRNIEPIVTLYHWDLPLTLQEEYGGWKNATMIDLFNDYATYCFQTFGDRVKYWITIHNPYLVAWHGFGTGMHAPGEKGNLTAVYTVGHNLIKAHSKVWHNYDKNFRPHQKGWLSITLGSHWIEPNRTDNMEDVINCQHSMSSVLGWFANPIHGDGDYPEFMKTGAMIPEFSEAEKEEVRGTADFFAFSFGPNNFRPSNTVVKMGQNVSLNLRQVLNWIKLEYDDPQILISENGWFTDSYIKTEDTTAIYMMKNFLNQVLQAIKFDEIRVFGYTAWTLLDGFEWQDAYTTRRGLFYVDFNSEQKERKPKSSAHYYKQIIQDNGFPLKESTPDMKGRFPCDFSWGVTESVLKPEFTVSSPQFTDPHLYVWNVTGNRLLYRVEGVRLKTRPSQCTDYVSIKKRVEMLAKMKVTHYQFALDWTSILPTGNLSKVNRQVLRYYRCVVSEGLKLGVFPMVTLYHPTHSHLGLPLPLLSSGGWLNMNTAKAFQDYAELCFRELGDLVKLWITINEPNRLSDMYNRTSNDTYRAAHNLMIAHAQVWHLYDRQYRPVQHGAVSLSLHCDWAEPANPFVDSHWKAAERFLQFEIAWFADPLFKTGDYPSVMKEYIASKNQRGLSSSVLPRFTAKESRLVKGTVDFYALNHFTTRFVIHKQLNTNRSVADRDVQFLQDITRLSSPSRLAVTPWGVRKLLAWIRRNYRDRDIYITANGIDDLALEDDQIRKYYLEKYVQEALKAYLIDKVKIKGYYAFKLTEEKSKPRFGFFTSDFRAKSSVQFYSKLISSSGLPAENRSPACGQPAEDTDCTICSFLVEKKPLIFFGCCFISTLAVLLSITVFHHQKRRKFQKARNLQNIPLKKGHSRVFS
Protocol: A commonly used measurement method is a cell growth stimulating activity measurement method described in Ornitz, D. M., Xu, J., Colvin, J. S., McEwen, D. G., MacArthur, C. A., Coulier, F., Gao, G. and Goldfarb, M. (1996) Receptor specificity of the fibroblast growth factor family. J Biol Chem, 271, 15292-15297. The summary thereof is as follows. FGF used as a measurement target is added to a culture solution containing a cultured cell having an FGF receptor on the surface thereof, and the obtained mixture is cultured for a certain period of time. Thereafter, a labeled thymidine is added to the culture solution, followed by further culture for a certain period of time. By measuring the amount of the labeled thymidine incorporated into polymeric DNA during the culture, the degree of FGF to activate DNA synthesis is evaluated. (In the present invention as well, this method was adopted when the activity of FGF21 was measured in Examples 4, 5, 6, 8, 9, and 10.)
FGFR1c-expressing BaF3 cells and FGFR1c- and betaKlotho-expressing BaF3 cells were prepared as follows. In the case of FGFR1c-expressing BaF3 cells, an animal cell expression vector into which the entire-length cDNA of mouse FGFR1c had been cloned (described in Ornitz, D. M., Xu, J., Colvin, J. S., McEwen, D. G., MacArthur, C. A., Coulier, F., Gao, G. and Goldfarb, M. (1996) Receptor specificity of the fibroblast growth factor family. J Biol Chem, 271, 15292-15297.) was introduced into BaF3 cells by an electroporation method. The cells were then cultured in the presence of G418 for approximately 2 weeks, so as to obtain drug-resistant clones. Thereafter, such clones were obtained as those capable of growing as a result of FGF1 stimulation. In the case of both FGFR1c- and betaKlotho-expressing BaF3 cells, the entire-length cDNA of mouse betaKlotho was cloned into an animal cell expression vector, and it was then introduced into the FGFR1c-expressing BaF3 cells. The cells were then cultured in the presence of Puromycin and G418 for approximately 2 weeks, so as to obtain drug-resistant clones. In the case of only betaKlotho-expressing BaF3 cells, a betaKlotho-expressing vector was introduced into BaF3 cells, and Puromycin-resistant clones were then obtained. The BaF3 cells, into which the aforementioned genes had been each introduced, were maintained in an RPMI1640 medium containing 10% FBS and interleukin 3 (IL3, supplied by adding a 5% condition medium of WEHI-3 cells). For the growth stimulation experiment, the cells were washed with an RPMI1640 medium, and they were then suspended in an RPMI1640 medium containing 10% FBS, followed by inoculating the suspension on a culture plate. Thereafter, the resultant cells were used.
Immediately after inoculation, BaF3 cells that had expressed each clone and only FGFR1c were stimulated by addition of FGF21 (open bar) or PBS (filled bar) used as a control in the presence of heparin, and they were then cultured for 42 hours. Thereafter, tritium-labeled thymidine was added to the culture solution, and the culture was further continued for 6 hours. Thereafter, the amount of thymidine incorporated into the cells was measured, so as to evaluate DNA synthesis. A DNA synthesis value obtained when the cells were not stimulated with FGF21 was defined as 1, and the ratio of a DNA synthesis value obtained by stimulating with FGF21 to the aforementioned DNA synthesis value was expressed using magnification. […]

[4] = biological target: T3, humanized FGFR1c/humanized betaKlotho (hβKlotho)-expressing cells (Homo sapiens, UniProt P11362+Q86Z14); assay: DNA synthesis in humanized FGFR1c/humanized betaKlotho-expressing BaF3 cells; conditions: humanized FGFR1c and humanized betaKlotho; 10 μg/ml heparin
T3 construct: expressed in transfected cells; host or cells: BaF3 (mouse pro-B) cells; pSRalpha (FGFR1c), pcDNA3.1 (betaKlotho)
T3 sequence (P11362 22-822): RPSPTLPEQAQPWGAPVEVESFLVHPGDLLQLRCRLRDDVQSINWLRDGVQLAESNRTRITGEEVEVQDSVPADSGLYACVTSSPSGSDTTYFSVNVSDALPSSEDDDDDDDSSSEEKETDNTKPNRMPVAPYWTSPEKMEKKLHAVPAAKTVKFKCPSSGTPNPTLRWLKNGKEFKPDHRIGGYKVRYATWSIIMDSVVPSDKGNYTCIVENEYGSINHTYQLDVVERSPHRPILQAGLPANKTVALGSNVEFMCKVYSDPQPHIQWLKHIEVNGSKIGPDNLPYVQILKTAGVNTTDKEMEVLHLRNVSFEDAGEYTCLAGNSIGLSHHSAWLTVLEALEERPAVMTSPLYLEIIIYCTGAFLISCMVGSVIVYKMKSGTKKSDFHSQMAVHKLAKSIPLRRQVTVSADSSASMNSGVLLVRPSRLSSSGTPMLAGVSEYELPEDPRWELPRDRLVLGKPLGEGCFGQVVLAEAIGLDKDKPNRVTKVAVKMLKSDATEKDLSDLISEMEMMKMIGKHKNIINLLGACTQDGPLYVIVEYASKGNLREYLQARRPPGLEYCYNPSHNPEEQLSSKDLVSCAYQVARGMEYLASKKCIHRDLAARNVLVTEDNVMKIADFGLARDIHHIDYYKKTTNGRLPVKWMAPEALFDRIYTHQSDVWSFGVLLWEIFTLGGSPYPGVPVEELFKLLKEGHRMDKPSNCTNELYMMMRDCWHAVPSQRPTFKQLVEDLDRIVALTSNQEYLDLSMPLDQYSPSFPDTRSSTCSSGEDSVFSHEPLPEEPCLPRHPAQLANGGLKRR
T3 sequence (Q86Z14 whole entry): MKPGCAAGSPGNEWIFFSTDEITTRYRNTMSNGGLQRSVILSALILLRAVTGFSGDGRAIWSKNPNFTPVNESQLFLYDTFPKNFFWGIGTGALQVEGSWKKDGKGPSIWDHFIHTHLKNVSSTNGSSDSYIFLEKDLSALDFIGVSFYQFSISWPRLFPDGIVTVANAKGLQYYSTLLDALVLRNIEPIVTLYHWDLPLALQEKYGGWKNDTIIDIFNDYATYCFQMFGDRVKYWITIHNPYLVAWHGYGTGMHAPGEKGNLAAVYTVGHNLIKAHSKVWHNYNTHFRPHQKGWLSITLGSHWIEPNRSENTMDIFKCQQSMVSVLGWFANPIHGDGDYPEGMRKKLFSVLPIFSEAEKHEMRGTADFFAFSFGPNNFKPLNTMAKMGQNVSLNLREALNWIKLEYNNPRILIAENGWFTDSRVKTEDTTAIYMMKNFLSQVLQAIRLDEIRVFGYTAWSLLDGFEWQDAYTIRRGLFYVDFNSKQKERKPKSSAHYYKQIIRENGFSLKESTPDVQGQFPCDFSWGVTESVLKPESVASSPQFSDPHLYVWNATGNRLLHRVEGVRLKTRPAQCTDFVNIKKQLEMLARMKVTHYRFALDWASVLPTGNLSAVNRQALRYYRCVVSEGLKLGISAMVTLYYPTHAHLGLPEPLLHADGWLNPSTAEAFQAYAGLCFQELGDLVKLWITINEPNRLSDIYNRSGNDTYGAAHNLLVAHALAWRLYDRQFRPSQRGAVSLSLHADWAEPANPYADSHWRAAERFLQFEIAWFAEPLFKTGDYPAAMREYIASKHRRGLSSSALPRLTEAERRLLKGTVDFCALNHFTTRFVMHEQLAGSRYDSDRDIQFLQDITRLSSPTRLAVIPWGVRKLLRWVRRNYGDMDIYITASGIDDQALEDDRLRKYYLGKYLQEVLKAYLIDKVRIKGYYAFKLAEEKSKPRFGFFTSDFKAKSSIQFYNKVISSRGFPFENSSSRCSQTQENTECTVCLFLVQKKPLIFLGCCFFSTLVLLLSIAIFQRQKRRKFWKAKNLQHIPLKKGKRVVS
Excerpt: (§1) In Examples 4, 5, 6, and 7, it was shown that FGF21 reacts with FGFR1c in the presence of betaKlotho. FGFR1c, betaKlotho, FGF21, and the like, which were used in an actual experimental system, were all derived from mice used as typical mammalian models. With regard to these molecules, the homology between a human and a mouse at the amino acid sequence level is extremely high (80% in FGF21, 78% in betaKlotho, and 98% in FGFR1). As a result, naturally, there are no problems regarding the compatibility of the human with the mouse, and thus it is clear that the same results as those from a murine molecule will be obtained even using a humanized molecule. In the present example, as a precautionary measure, an experimental system using a humanized molecule was constructed to confirm such respect, and an experiment was carried out. Specifically, the humanized cDNA of FGFR1c and that of betaKlotho were prepared from a commercially available human RNA sample (Takara Bio Inc.) by PCR. FGFR1c was introduced into an expression vector having an SRalpha promoter (pSRalpha), and betaKlotho was introduced into an expression vector having a CMV promoter (pcDNA3.1; Invitrogen). […] In the presence of heparin, humanized FGF21 was added in various types of concentrations to FGFR1c-expressing cells or FGFR1c/betaKlotho-co-expressing cells, and the amount of DNA synthesized was then measured.

[5] = biological target: T4, humanized FGFR3c/humanized betaKlotho (hβKlotho)-expressing cells (Homo sapiens, UniProt P22607+Q86Z14, A441S/A461E/A470D/A499P/A500N/A559S/A717S/A734V/A765M/C582S/D512S/D516E/D576E/D580N/D722E/D758Q/D785E/DEL405-414/E426D/E447G/E729D/E768D/F566Y/F579Y/F591S/F767L/G446S/G448T/G548D/G773S/G774F/H721N/I440P/I494L/I698V/I726M/INS417HSQMAVHKLAKSI/INS423TV/INS780T/K420R/K464R/K501R/K583H/L398M/L425A/L457Y/L554I/L645I/L752V/M488L/N428S/N434G/N453G/N644H/P401G/P402T/P436L/P502V/P584N/P778R/Q611K/Q775P/R397K/R399K/R416D/R498K/R568Q/S432N/S468P/S578C/S781C/T435V/T450M/T473V/T504K/T581P/T590S/T753A/T757N/V503T/V523I/V642I/V670I/V751I/V754L); assay: DNA synthesis in humanized FGFR3c/humanized betaKlotho-expressing BaF3 cells; conditions: humanized FGFR3c and humanized betaKlotho; 10 μg/ml heparin
T4 construct: expressed in transfected cells; host or cells: BaF3 (mouse pro-B) cells
T4 sequence (P22607 other isoform, or with tags, fused parts or gaps with the stated changes): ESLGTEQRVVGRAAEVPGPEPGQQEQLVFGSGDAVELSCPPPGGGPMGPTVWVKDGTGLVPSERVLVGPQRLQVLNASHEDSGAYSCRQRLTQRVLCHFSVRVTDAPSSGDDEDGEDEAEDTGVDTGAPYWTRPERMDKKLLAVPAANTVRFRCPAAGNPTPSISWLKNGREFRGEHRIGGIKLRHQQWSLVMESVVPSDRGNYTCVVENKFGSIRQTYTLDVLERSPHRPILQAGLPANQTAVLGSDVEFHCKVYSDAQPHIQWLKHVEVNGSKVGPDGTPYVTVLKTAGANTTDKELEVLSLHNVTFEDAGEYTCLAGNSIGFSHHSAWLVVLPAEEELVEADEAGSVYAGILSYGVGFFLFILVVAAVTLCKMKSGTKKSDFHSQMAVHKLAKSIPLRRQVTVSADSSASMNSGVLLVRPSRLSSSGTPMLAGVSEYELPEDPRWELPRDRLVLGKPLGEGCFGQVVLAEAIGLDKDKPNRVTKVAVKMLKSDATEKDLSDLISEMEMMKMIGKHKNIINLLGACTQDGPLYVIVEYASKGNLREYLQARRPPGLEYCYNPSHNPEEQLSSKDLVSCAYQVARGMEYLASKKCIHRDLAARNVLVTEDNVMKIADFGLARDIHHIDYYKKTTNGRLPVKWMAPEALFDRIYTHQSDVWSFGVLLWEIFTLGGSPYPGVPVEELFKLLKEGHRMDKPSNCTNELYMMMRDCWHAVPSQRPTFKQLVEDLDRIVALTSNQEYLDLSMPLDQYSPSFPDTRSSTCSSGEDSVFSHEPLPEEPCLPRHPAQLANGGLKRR
T4 sequence (Q86Z14 whole entry, stated change not applied): as the sequence (Q86Z14 whole entry) above
Protocol: (§2) The homology between human FGFR3 and mouse FGFR3 at the amino acid sequence level is 93%. […] The cDNA of humanized FGFR3c was prepared from a commercially available human RNA sample (Takara Bio Inc.) by PCR. The sequence of its intracellular portion was substituted with the sequence of humanized FGFR1, and it was then introduced into an expression vector having an SRalpha promoter (pSRalpha). The FGFR3c expression vector was introduced into BaF3 cells by an electroporation method, so as to obtain FGFR3c-expressing BaF3 cells as G418-resistant clones. In the case of FGFR3c/betaKlotho-co-expressing cells, a betaKlotho expression vector was introduced into the FGFR3c-expressing BaF3 cells, so as to obtain the aforementioned cells as Puromycin-resistant clones. In the presence of heparin, humanized FGF21 was added in various types of concentrations to FGFR3c-expressing cells or FGFR3c/betaKlotho-co-expressing cells, and the amount of DNA synthesized was then measured.

[6] = biological target: T5, humanized FGFR3c (hR3c)-expressing BaF3 cells (Homo sapiens, UniProt P22607, A441S/A461E/A470D/A499P/A500N/A559S/A717S/A734V/A765M/C582S/D512S/D516E/D576E/D580N/D722E/D758Q/D785E/DEL405-414/E426D/E447G/E729D/E768D/F566Y/F579Y/F591S/F767L/G446S/G448T/G548D/G773S/G774F/H721N/I440P/I494L/I698V/I726M/INS417HSQMAVHKLAKSI/INS423TV/INS780T/K420R/K464R/K501R/K583H/L398M/L425A/L457Y/L554I/L645I/L752V/M488L/N428S/N434G/N453G/N644H/P401G/P402T/P436L/P502V/P584N/P778R/Q611K/Q775P/R397K/R399K/R416D/R498K/R568Q/S432N/S468P/S578C/S781C/T435V/T450M/T473V/T504K/T581P/T590S/T753A/T757N/V503T/V523I/V642I/V670I/V751I/V754L); assay: DNA synthesis in humanized FGFR3c-expressing BaF3 cells; conditions: humanized FGFR3c only; 10 μg/ml heparin
T5 construct: expressed in transfected cells; host or cells: BaF3 (mouse pro-B) cells; pSRalpha vector
T5 sequence (P22607 other isoform, or with tags, fused parts or gaps with the stated changes): as the sequence (P22607 other isoform, or with tags, fused parts or gaps with the stated changes) above
Protocol: as §2

[7] = biological target: T6, humanized FGFR1c (hR1c)-expressing BaF3 cells (Homo sapiens, UniProt P11362); assay: DNA synthesis in humanized FGFR1c-expressing BaF3 cells; conditions: humanized FGFR1c only; 10 μg/ml heparin
T6 construct: expressed in transfected cells; host or cells: BaF3 (mouse pro-B) cells; pSRalpha vector
T6 sequence (P11362 22-822): as the sequence (P11362 22-822) above
Excerpt: as §1

## Cc1c[nH]c(/C=C2\C(=O)Nc3ccccc32)c1CCC(=O)O [SU5402, reference compound]
[1]
  degree of phosphorylation of FRS2 and MAPK on FGF21 stimulation after inhibitor pre-treatment: decreased

B1: FGF23: FGF having high structural similarity to FGF21; Klotho acts as its co-receptor (protein, UniProt Q9GZV9 25-251, looked up)
Fibroblast growth factor 23: YPNASPLLGSSWGGLIHLYTATARNSYHLQIHKNGHVDGAPHQTIYSALMIRSEDAGFVVITGVMSRRYLCMDFRGNIFGSHYFDPENCRFQHQTLENGYDVYHSPQYHFLVSLGRAKRAFLPGMNPPPYSQFLSRRNEIPLIHFNTPIPRRHTRSAEDDSERDPLNVLKPRARMTPAPASCSQELPSAEDNSPMASDPLGVVRGGRVNTHAGGTGPEGCRPFAKFI
[2]
  amount of DNA synthesized: able to act on FGFR1c-expressing cells
[3]
  DNA synthesis (thymidine incorporated into the cells): did not react with FGFR1c

B2: humanized FGF21: FGF21 protein with human amino acid sequence, prepared in Escherichia coli from human cDNA (protein)
chain: HPIPDSSPLLQFGGQVRQRYLYTDDAQQTEAHLEIREDGTVGGAADQSPESLLQLKALKPGVIQILGVKTSRFLCQRPDGALYGSLHFDPEACSFRELLLEDGYNVYQSEAHGLPLHLPGNKSPHRDPAPRGPARFLPLPGLPPALPEPPGILAPQPPDVGSSDPLSMVGPSQGRSPSYAS
[4]
  amount of DNA synthesized (thymidine incorporation): activated; also recorded: increased the amount of thymidine incorporated into the cells in a dose-dependent manner
[5]
  amount of DNA synthesized (thymidine incorporation): activated; also recorded: increased the amount of thymidine incorporated into the cells in a dose-dependent manner
[6]
  amount of DNA synthesized (thymidine incorporation): activated only the FGFR3c/betaKlotho-co-expressing cells
[7]
  amount of DNA synthesized (thymidine incorporation): activated only the FGFR1c/betaKlotho-co-expressing cells
